Laboratory results from publication PMC3135353 (The Journal of Experimental Medicine, 2011).
Numbering of substitutions follows the chain as printed. Numbers in names are those of the source.

T1: B7-H6, extracellular portion (residues Asp25-Ser262) (human, UniProt Q68D85 25-262, N-linked glycans seen at Asn43, Asn57 and Asn208)
T1 sequence (looked up): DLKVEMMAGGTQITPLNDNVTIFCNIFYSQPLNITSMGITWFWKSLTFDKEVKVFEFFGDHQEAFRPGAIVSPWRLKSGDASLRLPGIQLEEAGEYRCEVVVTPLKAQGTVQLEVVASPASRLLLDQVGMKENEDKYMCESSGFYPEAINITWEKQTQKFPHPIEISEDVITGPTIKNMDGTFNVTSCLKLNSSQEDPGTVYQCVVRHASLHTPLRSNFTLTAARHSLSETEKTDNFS

B1: NKp30 F85A/L86A mutant, extracellular portion (domain or fragment, human, UniProt O14931 19-135, looked up)
chain: LWVSQPPEIRTLEGSSAFLPCSFNASQGRLAIGSVTWFRDEVVPGKEVRNGTPEFRGRLAPLASSRAAHDHQAELHIRDVRGHDASIYVCRVEVLGLGVGTGNGTRLVVEKEHPQLG
B2: NKp30 I50A/S52A mutant, extracellular portion (domain or fragment, human, UniProt O14931 19-135, looked up)
chain: B1 chain with I32A, S34A, A67F, A68L
B3: NKp30 S52R mutant, extracellular portion (domain or fragment, human, UniProt O14931 19-135, looked up)
chain: B1 chain with S34R, A67F, A68L

Biological target: T1, B7-H6, extracellular portion (residues …)
Experiment: SPR

| Binder | Kd |
| --- | --- |
| B1 | 53 µM |
| B2 | 14 µM |
| B3 | 150 µM |
